Kd data for three substances are collected here from publication PMC11116813.

Experiment [1] concerns the target Chp2 (Schizosaccharomyces pombe) (UniProt O42934). The conditions noted are these: cited from earlier work.
For experiment [2], the target named is full-length human HP1α WT (hHP1α), recombinant (human) (UniProt P45973). Kind of experiment: ITC; iTC200, full-length HP1α dimer in the cell (60 μM for hINCENP, 80 μM for hSgo1), 600 μM hINCENP or 800 μM hSgo1 fragment in the syringe, 25°C, 20 mM NaPO4 pH 7.0, 150 mM NaCl, 1 mM DTT (Fig. 6A, Fig. S5A); one-site model.
Chain of full-length human HP1α WT (hHP1α), recombinant (human) (P45973 whole entry, the tested form may be a part): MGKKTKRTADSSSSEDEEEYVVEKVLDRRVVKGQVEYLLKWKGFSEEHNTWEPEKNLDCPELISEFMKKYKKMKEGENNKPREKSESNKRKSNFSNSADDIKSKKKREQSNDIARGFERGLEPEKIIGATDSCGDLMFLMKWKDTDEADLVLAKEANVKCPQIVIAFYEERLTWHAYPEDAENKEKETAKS

One may read the Kd as a measure of binding affinity in units of concentration.

Chain of Mit1 (Q9P793 whole entry): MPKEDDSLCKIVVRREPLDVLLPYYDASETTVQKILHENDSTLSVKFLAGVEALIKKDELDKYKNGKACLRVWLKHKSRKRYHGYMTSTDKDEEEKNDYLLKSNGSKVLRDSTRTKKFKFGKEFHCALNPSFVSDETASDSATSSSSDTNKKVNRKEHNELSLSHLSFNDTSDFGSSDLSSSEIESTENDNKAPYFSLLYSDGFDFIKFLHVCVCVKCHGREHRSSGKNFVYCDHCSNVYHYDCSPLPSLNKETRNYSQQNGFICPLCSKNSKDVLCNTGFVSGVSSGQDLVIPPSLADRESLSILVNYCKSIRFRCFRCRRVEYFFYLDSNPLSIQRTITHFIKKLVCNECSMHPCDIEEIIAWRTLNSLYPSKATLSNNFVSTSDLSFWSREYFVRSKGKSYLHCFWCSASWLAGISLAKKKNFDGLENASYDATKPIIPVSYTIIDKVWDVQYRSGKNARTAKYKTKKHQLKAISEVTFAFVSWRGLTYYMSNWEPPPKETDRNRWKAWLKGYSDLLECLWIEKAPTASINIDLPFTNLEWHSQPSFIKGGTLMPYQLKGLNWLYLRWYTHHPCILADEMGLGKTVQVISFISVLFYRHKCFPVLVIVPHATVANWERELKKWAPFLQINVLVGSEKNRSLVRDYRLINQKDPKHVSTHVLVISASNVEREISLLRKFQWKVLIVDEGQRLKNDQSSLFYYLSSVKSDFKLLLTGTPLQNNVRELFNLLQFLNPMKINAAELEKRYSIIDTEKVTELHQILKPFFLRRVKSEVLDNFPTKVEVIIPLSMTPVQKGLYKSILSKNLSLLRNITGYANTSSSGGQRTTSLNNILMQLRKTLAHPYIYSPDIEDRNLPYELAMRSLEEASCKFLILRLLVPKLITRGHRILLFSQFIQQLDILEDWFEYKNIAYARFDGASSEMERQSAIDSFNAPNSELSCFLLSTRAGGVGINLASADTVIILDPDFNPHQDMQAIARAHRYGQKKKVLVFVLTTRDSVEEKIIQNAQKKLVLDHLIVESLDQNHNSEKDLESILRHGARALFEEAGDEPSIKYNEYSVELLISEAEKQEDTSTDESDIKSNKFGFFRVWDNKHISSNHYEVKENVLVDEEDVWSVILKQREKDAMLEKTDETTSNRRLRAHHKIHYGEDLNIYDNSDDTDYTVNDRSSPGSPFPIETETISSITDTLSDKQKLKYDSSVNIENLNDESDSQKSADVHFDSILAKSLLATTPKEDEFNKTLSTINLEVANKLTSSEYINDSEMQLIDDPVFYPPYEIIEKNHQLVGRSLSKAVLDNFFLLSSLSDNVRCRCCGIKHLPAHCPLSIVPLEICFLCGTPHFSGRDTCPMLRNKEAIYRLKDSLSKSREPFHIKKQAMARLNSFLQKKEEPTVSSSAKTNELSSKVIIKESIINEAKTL
Chain of Chp2 (Schizosaccharomyces pombe) (O42934 whole entry, the tested form may be a part): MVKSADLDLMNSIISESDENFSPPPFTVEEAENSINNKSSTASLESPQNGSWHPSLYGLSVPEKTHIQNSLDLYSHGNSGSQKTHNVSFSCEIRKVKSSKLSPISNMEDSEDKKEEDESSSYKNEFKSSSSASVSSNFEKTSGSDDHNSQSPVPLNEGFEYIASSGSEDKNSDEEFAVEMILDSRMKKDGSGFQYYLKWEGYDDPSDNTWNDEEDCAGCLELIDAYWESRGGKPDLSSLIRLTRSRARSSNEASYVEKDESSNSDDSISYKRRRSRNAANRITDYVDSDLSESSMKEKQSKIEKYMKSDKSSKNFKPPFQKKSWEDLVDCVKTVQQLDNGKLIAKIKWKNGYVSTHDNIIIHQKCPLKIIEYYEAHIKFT

With Mit1 (from UniProt Q9P793), in experiment [1], the dissociation constant Kd is 2.6 nM.

With “human INCENP fragment (121-210) E180A (from UniProt Q9NQS7 121-210) (domain or fragment)”, the dissociation constant Kd in experiment [2] was determined as 810 nM.

As to “human INCENP fragment (121-210) WT used in Fig. 6A (from UniProt Q9NQS7 121-210) (domain or fragment)”, the Kd in experiment [2] came out at 60 nM.
